Biological target: T1, mini-collagen VI α1 chain, ColVIα1^C1C2 (human, UniProt P12109 566-1028)
T1 construct: human collagen VI α1 chain, UniProt P12109 aa 566-1028: nine Gly-X-Y triplets, coiled coil region, C1 and C2 vWA domains; Synthetic gene cloned into pHLSec with AgeI and XhoI; one chain of the disulphide-bonded heterotrimer α1α2α3^C1C2; also called α1 chain of α1α2α3^C1C2; source: Expi293F, co-transfected with the other two chains, secreted; in conditioned media, and purified (Strep-Tactin XT, …)
T1 sequence (looked up): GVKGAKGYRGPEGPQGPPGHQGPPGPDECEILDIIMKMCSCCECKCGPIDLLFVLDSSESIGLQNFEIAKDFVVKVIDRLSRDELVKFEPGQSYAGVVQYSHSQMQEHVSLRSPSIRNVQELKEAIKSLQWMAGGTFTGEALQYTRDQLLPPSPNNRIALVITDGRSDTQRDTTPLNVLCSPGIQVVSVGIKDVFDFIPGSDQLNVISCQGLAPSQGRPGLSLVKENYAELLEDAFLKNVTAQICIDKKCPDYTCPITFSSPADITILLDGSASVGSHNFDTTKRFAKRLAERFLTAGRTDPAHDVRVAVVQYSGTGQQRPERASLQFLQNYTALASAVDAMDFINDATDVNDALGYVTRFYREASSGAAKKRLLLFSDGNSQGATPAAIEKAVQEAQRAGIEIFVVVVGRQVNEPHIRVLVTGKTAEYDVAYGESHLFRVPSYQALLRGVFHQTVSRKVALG
Test: pull-down; three chains co-expressed in Expi293F; sequential affinity steps from conditioned media (Strep-Tactin XT for Twin-Strep α2, Ni-Sepharose for His α1, anti-FLAG M2 for α3; Fig. 5f: Twin-strep then His-tag); eluates on reduced and non-reduced SDS-PAGE
Settings: partners not purified

binding result: binds
B1: mini-collagen VI α2 chain, ColVIα2^C1C2 (domain or fragment, human, UniProt P12110 564-1019, looked up)
chain: GEPGPRGPRGVPGPEGEPGPPGDPGLTECDVMTYVRETCGCCDCEKRCGALDVVFVIDSSESIGYTNFTLEKNFVINVVNRLGAIAKDPKSETGTRVGVVQYSHEGTFEAIQLDDERIDSLSSFKEAVKNLEWIAGGTWTPSALKFAYDRLIKESRRQKTRVFAVVITDGRHDPRDDDLNLRALCDRDVTVTAIGIGDMFHEKHESENLYSIACDKPQQVRNMTLFSDLVAEKFIDDMEDVLCPDPQIVCPDLPCQTELSVAQCTQRPVDIVFLLDGSERLGEQNFHKARRFVEQVARRLTLARRDDDPLNARVALLQFGGPGEQQVAFPLSHNLTAIHEALETTQYLNSFSHVGAGVVHAINAIVRSPRGGARRHAELSFVFLTDGVTGNDSLHESAHSMRKQNVVPTVLALGSDVDMDVLTTLSLGDRAAVFHEKDYDSLAQPGFFDRFIRWIC
notes: human collagen VI α2 chain, UniProt P12110 aa 564-1019: nine Gly-X-Y triplets, coiled coil region, C1 and C2 vWA domains; Synthetic gene cloned into pHLSec with AgeI and XhoI; density for two N-linked glycans on this chain in the cryoEM map; also called α2 chain of α1α2α3^C1C2; source: Expi293F, co-transfected with the other two chains, secreted; in conditioned media, and purified (Strep-Tactin …)

From paper PMC12354898, “Collagen VI microfibril structure reveals mechanism for molecular assembly and clustering of inherited pathogenic mutations” (Nature Communications, 2025)
